According to publication PMC11480844 (2024):

B1: H2-Kb / Ed33 (parent complex)
chain 1: SQLAEENSWALSVHEGESVTVNCSYKTSITALQWYRQKSGKGPAQLILIRSNEREKRNGRLRATLDTSSQSSSLSITATRCEDTAVYFCATDHNNAGAKLTFGGGTRLTVRP
chain 2: DAGVTQTPRHEVAEKGQTIILKCEPVSGHNDLFWYRQTKIQGLELLSYFRSKSLMEDGGAFKDRFKAEMLNSSFSTLKIQPTEPKDSAVYLCASSLYTNQAPLFGEGTRLSVL
chain 3: not shown
chain 4: IQKTPQIQVYSRHPPENGKPNILNCYVTQFHPPHIEIQMLKNGKKIPKVEMSDMSFSKDWSFYILAHTEFTPTETDTYACRVKHDSMAEPKTVYWDRDM
chain 5: SIINFEKL
B2: H2-Kb / Ed40 (parent complex)
chain 1: GDSVTQTEGPVTVSESESLIINCTYSATSIAYPNLFWYVRYPGEGLQLLLKVITAGQKGSSRGFEATYNKETTSFHLQKASVQESDSAVYYCALGDGYTGNYKYVFGAGTRLKVIA
chain 2: DSGVVQSPRHIIKEKGGRSVLTCIPISGHSNVVWYQQTLGKELKFLIQHYEKVERDKGFLPSRFSVQQFDDYHSEMNMSALELEDSAMYFCASSGASAETLYFGSGTRLTVL
chain 3: not shown
chain 4: B1 chain 4
chain 5: SIINFEKL

Variants of: B1
Assay: % of reporter cells activated (NFAT-GFP), raw
Further: test concentration or dose not given here.

Going from chain 5 F5M to chain 5 I3C, the ratio to parent falls from 1.09 to 1.02.

Compared with chain 5 I2M, chain 5 I3A is lower in ratio to parent: 1.08 for the first, 1.03 for the second.

First: chain 5 L8V
Second: chain 5 K7D
The ratio to parent of the first is higher: 0.815 for the first, 0.0503 for the second.

First: chain 5 L8T
Second: chain 5 L8G
The ratio to parent of the first is higher: 0.929 for the first, 0.87 for the second.

Going from chain 5 F5Y to chain 5 I2S, the ratio to parent falls from 1.04 to 0.691.

Going from chain 5 E6S to chain 5 N4M, the ratio to parent falls from 0.0699 to 0.00151.

Going from chain 5 F5L to chain 5 K7L, the ratio to parent falls from 0.916 to 0.0519.

Going from chain 5 S1T to chain 5 N4Y, the ratio to parent falls from 0.61 to 0.0163.

First: chain 5 I2W
Second: chain 5 N4V
The ratio to parent of the first is higher: 0.738 for the first, 0.181 for the second.

First: chain 5 N4I
Second: chain 5 E6L
The ratio to parent of the first is higher: 0.271 for the first, 0.00458 for the second.

Variants of: B2
Assay: % of reporter cells activated (NFAT-GFP), raw

First: chain 5 S1T
Second: chain 5 K7Y
The ratio to parent of the first is higher: 0.92 for the first, 0.444 for the second.

Compared with chain 5 E6L, chain 5 S1H is higher in ratio to parent: 0.11 for the first, 0.914 for the second.

Compared with chain 5 F5A, chain 5 L8K is lower in ratio to parent: 0.944 for the first, 0.816 for the second.

Compared with chain 5 F5C, chain 5 L8S is lower in ratio to parent: 1.01 for the first, 0.681 for the second.

First: chain 5 I2D
Second: chain 5 S1I
The ratio to parent of the first is higher: 1.2 for the first, 0.597 for the second.

First: chain 5 I2K
Second: chain 5 K7N
The ratio to parent of the first is higher: 0.968 for the first, 0.163 for the second.

Going from chain 5 I2H to chain 5 I3H, the ratio to parent falls from 0.7 to 0.67.

Compared with chain 5 I2Y, chain 5 I3P is lower in ratio to parent: 0.834 for the first, 0.601 for the second.

Going from chain 5 F5Y to chain 5 K7Q, the ratio to parent falls from 1.11 to 0.121.

Compared with chain 5 L8I, chain 5 F5H is higher in ratio to parent: 0.95 for the first, 1.06 for the second.

Going from chain 5 F5V to chain 5 L8W, the ratio to parent falls from 0.868 to 0.787.

Compared with chain 5 K7H, chain 5 E6Y is lower in ratio to parent: 0.754 for the first, 0.0704 for the second.

First: chain 5 F5T
Second: chain 5 I2C
The ratio to parent of the first is higher: 1.22 for the first, 1.02 for the second.

Going from chain 5 F5P to chain 5 I3S, the ratio to parent falls from 0.944 to 0.789.

Compared with chain 5 K7C, chain 5 I2M is higher in ratio to parent: 0.0448 for the first, 0.913 for the second.

Going from chain 5 F5M to chain 5 N4V, the ratio to parent falls from 0.856 to 0.00392.

First: chain 5 L8C
Second: chain 5 S1A
The ratio to parent of the first is lower: 0.555 for the first, 1.01 for the second.

Compared with chain 5 E6K, chain 5 N4K is lower in ratio to parent: 0.634 for the first, 0.0365 for the second.

Compared with chain 5 K7G, chain 5 S1M is higher in ratio to parent: 0.382 for the first, 0.993 for the second.

Compared with chain 5 L8R, chain 5 I3E is lower in ratio to parent: 0.785 for the first, 0.545 for the second.

Compared with chain 5 N4Q, chain 5 I3A is higher in ratio to parent: 0.00152 for the first, 0.28 for the second.

First: chain 5 E6M
Second: chain 5 E6T
The ratio to parent of the first is higher: 0.172 for the first, 0.0789 for the second.

Going from chain 5 L8A to chain 5 F5G, the ratio to parent falls from 0.816 to 0.78.

First: chain 5 E6D
Second: chain 5 S1R
The ratio to parent of the first is higher: 0.844 for the first, 0.532 for the second.

First: chain 5 I2F
Second: chain 5 I2P
The ratio to parent of the first is lower: 1 for the first, 1.07 for the second.

Compared with chain 5 L8N, chain 5 E6V is lower in ratio to parent: 0.645 for the first, 0.00511 for the second.

First: chain 5 I2W
Second: chain 5 E6S
The ratio to parent of the first is higher: 0.654 for the first, 0.162 for the second.

First: chain 5 I3K
Second: chain 5 I2E
The ratio to parent of the first is lower: 0.791 for the first, 0.869 for the second.

Compared with chain 5 N4E, chain 5 E6R is higher in ratio to parent: 0.00154 for the first, 0.675 for the second.

chain 5 F5I and chain 5 S1C are the same in ratio to parent: 0.615 for the first, 0.615 for the second.

Going from chain 5 L8P to chain 5 F5N, the ratio to parent rises from 0.651 to 0.891.

First: chain 5 K7W
Second: chain 5 I3Q
The ratio to parent of the first is higher: 0.644 for the first, 0.329 for the second.

Going from chain 5 N4H to chain 5 I2V, the ratio to parent rises from 0.0593 to 1.15.

First: chain 5 L8Y
Second: chain 5 K7P
The ratio to parent of the first is higher: 0.96 for the first, 0.296 for the second.

First: chain 5 K7I
Second: chain 5 L8F
The ratio to parent of the first is lower: 0.165 for the first, 0.993 for the second.

Compared with chain 5 I2L, chain 5 F5Q is lower in ratio to parent: 1.14 for the first, 0.601 for the second.

Going from chain 5 E6P to chain 5 S1P, the ratio to parent rises from 0.164 to 0.576.

First: chain 5 K7A
Second: chain 5 F5W
The ratio to parent of the first is lower: 0.343 for the first, 1.02 for the second.

First: chain 5 I3R
Second: chain 5 N4F
The ratio to parent of the first is higher: 0.207 for the first, 0.00938 for the second.

Going from chain 5 S1E to chain 5 I2A, the ratio to parent rises from 0.432 to 1.13.

Compared with chain 5 S1V, chain 5 N4C is lower in ratio to parent: 0.738 for the first, 0.0253 for the second.

First: chain 5 I2N
Second: chain 5 I3L
The ratio to parent of the first is lower: 0.757 for the first, 0.895 for the second.

Compared with chain 5 I2R, chain 5 S1Y is higher in ratio to parent: 0.958 for the first, 0.977 for the second.

Compared with chain 5 K7V, chain 5 I3W is higher in ratio to parent: 0.224 for the first, 0.488 for the second.

Compared with chain 5 L8E, chain 5 N4A is lower in ratio to parent: 0.612 for the first, 0.0166 for the second.

Going from chain 5 L8H to chain 5 N4M, the ratio to parent falls from 0.822 to 0.00232.

Going from chain 5 L8V to chain 5 E6F, the ratio to parent falls from 0.831 to 0.0664.

First: chain 5 E6A
Second: chain 5 L8Q
The ratio to parent of the first is lower: 0.445 for the first, 0.716 for the second.

Compared with chain 5 E6I, chain 5 I2Q is higher in ratio to parent: 0.00278 for the first, 0.697 for the second.

Compared with chain 5 E6C, chain 5 F5D is higher in ratio to parent: 0.0158 for the first, 0.49 for the second.

First: chain 5 I2T
Second: chain 5 N4L
The ratio to parent of the first is higher: 1.18 for the first, 0.086 for the second.

Going from chain 5 K7E to chain 5 F5K, the ratio to parent rises from 0.00653 to 0.685.

First: chain 5 N4I
Second: chain 5 E6N
The ratio to parent of the first is lower: 0.02 for the first, 0.287 for the second.

First: chain 5 I3M
Second: chain 5 K7S
The ratio to parent of the first is lower: 0.462 for the first, 0.648 for the second.

Compared with chain 5 N4D, chain 5 F5R is higher in ratio to parent: 0.00665 for the first, 0.938 for the second.

Going from chain 5 I3N to chain 5 F5S, the ratio to parent rises from 0.534 to 1.09.

Compared with chain 5 E6Q, chain 5 S1L is lower in ratio to parent: 0.527 for the first, 0.466 for the second.

Compared with chain 5 S1F, chain 5 N4R is lower in ratio to parent: 0.765 for the first, 0.362 for the second.

First: chain 5 E6W
Second: chain 5 I3D
The ratio to parent of the first is lower: 0.0475 for the first, 0.166 for the second.

First: chain 5 L8D
Second: chain 5 N4P
The ratio to parent of the first is higher: 0.546 for the first, 0.00321 for the second.

Going from chain 5 N4S to chain 5 S1N, the ratio to parent rises from 0.0147 to 0.31.

First: chain 5 F5L
Second: chain 5 K7D
The ratio to parent of the first is higher: 0.906 for the first, 0.0102 for the second.

First: chain 5 L8M
Second: chain 5 K7M
The ratio to parent of the first is higher: 0.897 for the first, 0.0429 for the second.

Compared with chain 5 K7F, chain 5 I3F is higher in ratio to parent: 0.0192 for the first, 0.641 for the second.

First: chain 5 N4G
Second: chain 5 N4W
The ratio to parent of the first is higher: 0.0118 for the first, 0.00287 for the second.
